± gives the uncertainty stated by the source.

The chains are these.
B1: Double-stranded RNA-specific adenosine deaminase, residues 296 to 358; numbered along this chain, P55265 (parent)
chain: MAEIKEKICDYLFNVSDSSALNLAKNIGLTKARDINAVLIDMERQGDVYRQGTTPPIWHLTDK

This data set covers variants of B1. Kind of data set: abundance fitness (aPCA) (normalised: wild type 0, dead -1); higher = more abundant; growth selection in yeast, the domain comes from the species named. The following applies: Homo sapiens.
As for MAEIKEKICDYLGNVSDSSALNLAKNIGLTKARDINAVLIDMERQGDVYRQGTTPPIWHLTDK [F13G], the abundance fitness turned out to be 0.335 ± 0.044.
For MAEIKEKICDYLPNVSDSSALNLAKNIGLTKARDINAVLIDMERQGDVYRQGTTPPIWHLTDK [F13P], the abundance fitness was -0.216 ± 0.082.
Consider MAEIKEKICDYLTNVSDSSALNLAKNIGLTKARDINAVLIDMERQGDVYRQGTTPPIWHLTDK [F13T], for which the abundance fitness is 0.227 ± 0.057.
The result for MAEIKEKICDYLQNVSDSSALNLAKNIGLTKARDINAVLIDMERQGDVYRQGTTPPIWHLTDK [F13Q] reads 0.541 ± 0.077; that for MAEIKEKICDYLKNVSDSSALNLAKNIGLTKARDINAVLIDMERQGDVYRQGTTPPIWHLTDK [F13K], 0.538 ± 0.066.
To MAEIKEKICDYLCNVSDSSALNLAKNIGLTKARDINAVLIDMERQGDVYRQGTTPPIWHLTDK [F13C] belongs 0.19 ± 0.059; to MAEIKEKICDYLHNVSDSSALNLAKNIGLTKARDINAVLIDMERQGDVYRQGTTPPIWHLTDK [F13H], 0.1 ± 0.1; to MAEIKEKICDYLVNVSDSSALNLAKNIGLTKARDINAVLIDMERQGDVYRQGTTPPIWHLTDK [F13V], -0.061 ± 0.055.
The result for MAEIKEKICDYLANVSDSSALNLAKNIGLTKARDINAVLIDMERQGDVYRQGTTPPIWHLTDK [F13A] reads 0.543 ± 0.051; that for MAEIKEKICDYLENVSDSSALNLAKNIGLTKARDINAVLIDMERQGDVYRQGTTPPIWHLTDK [F13E], 0.383 ± 0.078.
As for MAEIKEKICDDLFNVSDSSALNLAKNIGLTKARDINAVLIDMERQGDVYRQGTTPPIWHLTDK [Y11D], the abundance fitness was -0.488 ± 0.087.
To MAEIKEKICDFLFNVSDSSALNLAKNIGLTKARDINAVLIDMERQGDVYRQGTTPPIWHLTDK [Y11F] belongs -0.056 ± 0.11; to MAEIKEKICDVLFNVSDSSALNLAKNIGLTKARDINAVLIDMERQGDVYRQGTTPPIWHLTDK [Y11V], -0.359 ± 0.051.
To MAEIKEKICDELFNVSDSSALNLAKNIGLTKARDINAVLIDMERQGDVYRQGTTPPIWHLTDK [Y11E] belongs -0.035 ± 0.05; to MAEIKEKICDSLFNVSDSSALNLAKNIGLTKARDINAVLIDMERQGDVYRQGTTPPIWHLTDK [Y11S], -0.255 ± 0.052; to MAEIKEKICDALFNVSDSSALNLAKNIGLTKARDINAVLIDMERQGDVYRQGTTPPIWHLTDK [Y11A], -0.126 ± 0.047.
To MAEIKEKICDILFNVSDSSALNLAKNIGLTKARDINAVLIDMERQGDVYRQGTTPPIWHLTDK [Y11I] belongs -0.214 ± 0.15; to MAEIKEKICDRLFNVSDSSALNLAKNIGLTKARDINAVLIDMERQGDVYRQGTTPPIWHLTDK [Y11R], -0.376 ± 0.046; to MAEIKEKICDKLFNVSDSSALNLAKNIGLTKARDINAVLIDMERQGDVYRQGTTPPIWHLTDK [Y11K], -0.256 ± 0.057.
In the case of MAEIKEKICDQLFNVSDSSALNLAKNIGLTKARDINAVLIDMERQGDVYRQGTTPPIWHLTDK [Y11Q], the abundance fitness was -0.204 ± 0.075.
The result for MAEIKEKICDNLFNVSDSSALNLAKNIGLTKARDINAVLIDMERQGDVYRQGTTPPIWHLTDK [Y11N] reads -0.407 ± 0.16; that for MAEIKEKICDPLFNVSDSSALNLAKNIGLTKARDINAVLIDMERQGDVYRQGTTPPIWHLTDK [Y11P], -0.175 ± 0.06; that for MAEIKEKICDGLFNVSDSSALNLAKNIGLTKARDINAVLIDMERQGDVYRQGTTPPIWHLTDK [Y11G], -0.391 ± 0.049.
To MAEIKEKICDTLFNVSDSSALNLAKNIGLTKARDINAVLIDMERQGDVYRQGTTPPIWHLTDK [Y11T] belongs -0.341 ± 0.067; to MAEIKEKICDMLFNVSDSSALNLAKNIGLTKARDINAVLIDMERQGDVYRQGTTPPIWHLTDK [Y11M], -0.429 ± 0.066.
The result for MAEIKEKICDCLFNVSDSSALNLAKNIGLTKARDINAVLIDMERQGDVYRQGTTPPIWHLTDK [Y11C] reads -0.22 ± 0.076; that for MAEIKEKICDYLFNWSDSSALNLAKNIGLTKARDINAVLIDMERQGDVYRQGTTPPIWHLTDK [V15W], -0.213 ± 0.063.
On to MAEIKEKICDYLFNASDSSALNLAKNIGLTKARDINAVLIDMERQGDVYRQGTTPPIWHLTDK [V15A], for which the abundance fitness is -0.147 ± 0.055.
To MAEIKEKICDYLFNGSDSSALNLAKNIGLTKARDINAVLIDMERQGDVYRQGTTPPIWHLTDK [V15G] belongs -0.377 ± 0.053.
On to MAEIKEKICDYLFNSSDSSALNLAKNIGLTKARDINAVLIDMERQGDVYRQGTTPPIWHLTDK [V15S], for which the abundance fitness was -0.137 ± 0.062.
To MAEIKEKICDYLFNFSDSSALNLAKNIGLTKARDINAVLIDMERQGDVYRQGTTPPIWHLTDK [V15F] belongs 0.045 ± 0.12; to MAEIKEKICDYLFNQSDSSALNLAKNIGLTKARDINAVLIDMERQGDVYRQGTTPPIWHLTDK [V15Q], -0.288 ± 0.077.
To MAEIKEKICDYLFNDSDSSALNLAKNIGLTKARDINAVLIDMERQGDVYRQGTTPPIWHLTDK [V15D] belongs -0.463 ± 0.1.
The result for MAEIKEKICDYLFNKSDSSALNLAKNIGLTKARDINAVLIDMERQGDVYRQGTTPPIWHLTDK [V15K] reads -0.089 ± 0.058; that for MAEIKEKICDYLFNESDSSALNLAKNIGLTKARDINAVLIDMERQGDVYRQGTTPPIWHLTDK [V15E], -0.025 ± 0.057.
Turning to MAEIKEKICDYLFNISDSSALNLAKNIGLTKARDINAVLIDMERQGDVYRQGTTPPIWHLTDK [V15I], the abundance fitness was -0.2 ± 0.2.
To MAEIKEKICDYLFNYSDSSALNLAKNIGLTKARDINAVLIDMERQGDVYRQGTTPPIWHLTDK [V15Y] belongs -0.202 ± 0.096; to MAEIKEKICDYLFNHSDSSALNLAKNIGLTKARDINAVLIDMERQGDVYRQGTTPPIWHLTDK [V15H], 0.489 ± 0.23.
The result for MAEIKEKICDYLFNRSDSSALNLAKNIGLTKARDINAVLIDMERQGDVYRQGTTPPIWHLTDK [V15R] reads -0.231 ± 0.049; that for MAEIKEKICDYLFNCSDSSALNLAKNIGLTKARDINAVLIDMERQGDVYRQGTTPPIWHLTDK [V15C], -0.365 ± 0.078; that for MAEIKEKICDYLFNMSDSSALNLAKNIGLTKARDINAVLIDMERQGDVYRQGTTPPIWHLTDK [V15M], -0.203 ± 0.078.
To MAEIKEKICDYLFNTSDSSALNLAKNIGLTKARDINAVLIDMERQGDVYRQGTTPPIWHLTDK [V15T] belongs -0.392 ± 0.11; to MAEIKEKICDYLFNPSDSSALNLAKNIGLTKARDINAVLIDMERQGDVYRQGTTPPIWHLTDK [V15P], -0.64 ± 0.17.

The record behind these values is the Human Domainome abundance scans (Beltran et al. 2025).
